B1: PDE7A;101-450: truncated human PDE7A1, amino acids 101-450; positions 45-394 of SEQ ID No1 (protein, listed as Homo sapiens)
chain: VSVSARNIRRLLSFQRYLRSSRFFRGTAVSNSLNILDDDYNGQAKCMLEKVGNWNFDIFLFDRLTNGNSLVSLTFHLFSLHGLIEYFHLDMMKLRRFLVMIQEDYHSQNPYHNAVHAADVTQAMHCYLKEPKLANSVTPWDILLSLIAAATHDLDHPGVNQPFLIKTNHYLATLYKNTSVLENHHWRSAVGLLRESGLFSHLPLESRQQMETQIGALILATDISRQNEYLSLFRSHLDRGDLCLEDTRHRHLVLQMALKCADICNPCRTWELSKQWSEKVTEEFFHQGDIEKKYHLGVSPLCDRHTESIANIQIGFMTYLVEPLFTEWARFSNTRLSQTMLGHVGLNKAS
B2: PDE7A;101-430: truncated human PDE7A1, amino acids 101-430 (protein, UniProt Q13946 101-430, looked up, fragment)
chain: VSVSARNIRRLLSFQRYLRSSRFFRGTAVSNSLNILDDDYNGQAKCMLEKVGNWNFDIFLFDRLTNGNSLVSLTFHLFSLHGLIEYFHLDMMKLRRFLVMIQEDYHSQNPYHNAVHAADVTQAMHCYLKEPKLANSVTPWDILLSLIAAATHDLDHPGVNQPFLIKTNHYLATLYKNTSVLENHHWRSAVGLLRESGLFSHLPLESRQQMETQIGALILATDISRQNEYLSLFRSHLDRGDLCLEDTRHRHLVLQMALKCADICNPCRTWELSKQWSEKVTEEFFHQGDIEKKYHLGVSPLCDRHTESIANIQIGFMTYLVEPLFTEWAR
modifications: PDE7A1
B3: PDE7A;101-420: truncated human PDE7A1, amino acids 101-420 (protein, UniProt Q13946 101-420, looked up, fragment)
chain: VSVSARNIRRLLSFQRYLRSSRFFRGTAVSNSLNILDDDYNGQAKCMLEKVGNWNFDIFLFDRLTNGNSLVSLTFHLFSLHGLIEYFHLDMMKLRRFLVMIQEDYHSQNPYHNAVHAADVTQAMHCYLKEPKLANSVTPWDILLSLIAAATHDLDHPGVNQPFLIKTNHYLATLYKNTSVLENHHWRSAVGLLRESGLFSHLPLESRQQMETQIGALILATDISRQNEYLSLFRSHLDRGDLCLEDTRHRHLVLQMALKCADICNPCRTWELSKQWSEKVTEEFFHQGDIEKKYHLGVSPLCDRHTESIANIQIGFMTYL
modifications: PDE7A1
B4: fragment 1-101: first N-terminal 100 amino acids of the full length human PDE7A1 (protein, UniProt Q13946 1-100, looked up, fragment)
chain: MEVCYQLPVLPLDRPVPQHVLSRRGAISFSSSSALFGCPNPRQLSQRRGAISYDSSDQTALYIRMLGDVRVRSRAGFESERRGSHPYIDFRIFHSQSEIE
modifications: PDE7A1
notes: first N-terminal 100 amino acids of the full length human PDE7A1
B5: PDE7Δ100: human PDE7A1 construct which lacks the first 100 amino acids; positions 45-427 of SEQ ID No1 (protein)
chain: VSVSARNIRRLLSFQRYLRSSRFFRGTAVSNSLNILDDDYNGQAKCMLEKVGNWNFDIFLFDRLTNGNSLVSLTFHLFSLHGLIEYFHLDMMKLRRFLVMIQEDYHSQNPYHNAVHAADVTQAMHCYLKEPKLANSVTPWDILLSLIAAATHDLDHPGVNQPFLIKTNHYLATLYKNTSVLENHHWRSAVGLLRESGLFSHLPLESRQQMETQIGALILATDISRQNEYLSLFRSHLDRGDLCLEDTRHRHLVLQMALKCADICNPCRTWELSKQWSEKVTEEFFHQGDIEKKYHLGVSPLCDRHTESIANIQIGFMTYLVEPLFTEWARFSNTRLSQTMLGHVGLNKASWKGLQREQSSSEDTDAAFELNSQLLPQENRLS
modifications: left off: small tags and cut ends

Key:
PDE7A = PDE7A (Homo sapiens, UniProt Q13946); details: cited from earlier work
Chain of PDE7A (Q13946 whole entry, species assumed): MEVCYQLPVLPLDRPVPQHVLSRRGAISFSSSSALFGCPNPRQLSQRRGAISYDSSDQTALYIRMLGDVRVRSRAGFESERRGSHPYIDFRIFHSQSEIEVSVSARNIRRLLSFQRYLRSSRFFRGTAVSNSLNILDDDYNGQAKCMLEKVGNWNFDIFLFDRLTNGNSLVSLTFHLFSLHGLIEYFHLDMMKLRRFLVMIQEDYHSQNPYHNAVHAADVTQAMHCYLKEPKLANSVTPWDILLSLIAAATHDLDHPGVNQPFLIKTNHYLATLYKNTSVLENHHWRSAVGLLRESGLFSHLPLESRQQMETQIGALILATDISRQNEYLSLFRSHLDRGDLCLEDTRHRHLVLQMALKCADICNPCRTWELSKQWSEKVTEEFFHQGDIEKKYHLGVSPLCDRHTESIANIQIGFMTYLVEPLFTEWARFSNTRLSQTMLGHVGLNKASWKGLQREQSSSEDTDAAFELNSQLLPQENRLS

[1] = molecular target: T1, recombinant full length PDE7A1 (Homo sapiens, UniProt Q13946); test: PDE assay for IC50 measurements (SPA, cell lysate enzyme); format: biochemical; details: full length PDE7A produced in Baculovirus or eucaryote
T1 construct: the full length PDE7A1 protein (1-483); made in house; host or cells: CHO (EcRCHO) cells, transient transfection, cytosol/lysate supernatant; Sf21/baculovirus also described
T1 sequence (Q13946 whole entry): as the sequence (Q13946 whole entry, species assumed) above
Procedure: (§1) The cell lysates containing PDE7A1 (full length or the truncated forms) were used as enzyme source. PDE assays were performed in 96-well plates in a final volume of […] at pH 8 comprising: 2 μL of compound dissolved in DMSO at 8 different concentrations, 40 mM TRIS, 10 mM MgCl2, 50 nM [^3H]-cAMP (Amersham) and enzyme at the appropriate concentration. Plates were incubated for 10 min at 37° C. in a heater/shaker and stopped by addition of 20 μL Yttrium silicate beads (Scintillation Proximity Assay, Amersham). Enzyme activity was read on a Topcount reader (Packard). Substrate depletion never exceeded 15% of the initial amount. The given IC50s represent the concentration of compound leading to 50% inhibition of the cAMP hydrolysis versus control. They are calculated using a classical sigmoidal model with Hill slope fixed to 1.
(§2) The cell lysates containing recombinant PDE7A1 (full length or the truncated forms) were used as enzyme source. PDE assays were performed in 96-well plates in a final volume of 100 μL at pH 8 comprising: […] of compound dissolved in DMSO at 8 different concentrations, 40 mM TRIS, 10 mM MgCl2, 50 nM [^3H]-cAMP and enzyme at the appropriate concentration.
(§3) Plates were incubated for 10 min at 37° C. in a heater/shaker and stopped by addition of 20 μL Yttrium silicate beads (Scintillation Proximity Assay, Amersham).
(§4) Enzyme activity was determined by measuring the radioactivity on a Topcount reader (Packard).
(§5) Substrate depletion never exceeded 15% of the initial amount. The given IC50s represent the concentration of compound leading to 50% inhibition of the cAMP hydrolysis versus control. They are calculated using a classical sigmoidal model with Hill slope

PDE7(101-450) = molecular target: T2, PDE7(101-450) (Homo sapiens, UniProt Q13946); test: as above; format: biochemical; details: PDE7(101-450) produced in Baculovirus or eucaryote
T2 construct: made in house; host or cells: CHO (EcRCHO) cells, transient transfection; crude lysate supernatant
Procedure: as §1, §2, §3, §4, §5

PDE7(101-483) = molecular target: T3, PDE7(101-483) (Homo sapiens, UniProt Q13946); test: cAMP hydrolysis in cytosol extract of transfected CHO cells, with rolipram; format: biochemical; details: truncated PDE7 construct 101-483 in CHO; rolipram at 10 μM
T3 construct: this catalytic fragment (101-482) fragment was co-expressed; made in house; host or cells: CHO (EcRCHO) cells, transient transfection; crude lysate supernatant
Procedure: Three days before transfection, CHO cells were plated at a density of 2×10^6 cells per 150 cm^2 flask. Cells were transfected with 20 μg of endotoxin free plasmid DNA using Lipofectamine following the manufacturers instructions (Gibco BRL, Gaithersburg, Md.). After incubation for 48 hours, cells were washed twice with phosphate buffered saline (PBS), trypsinized, harvested by centrifugation and resuspended in 300 μL of PDE extraction buffer (Bis Tris 20 mM (pH 6.5), EDTA 10 mM, DTT 2.5 M) supplemented with a mixture of protease inhibitors at a final concentration of 2 mM benzamidine, 2 μg/ml soybean trypsin inhibitor, 50 μM PMSF and 100 μg/ml bacitracin. Cells were sonicated, centrifuged for 20 minutes at 14,000 g and the resultant supernatants were analyzed for cAMP phosphodiesterase activity.
Phosphodiesterase activities were assayed using a modification of the method described by Smith and collaborators (Manganellio et al., 1991) using the observation that 5′-nucleotides bind very strongly to aluma while the cyclic nucleotides are readily eluted at neutral or slightly alkaline pH. Assays were performed in 96 well plates at 37° C. in a total volume of 200 μl. […] The separated [^3H] cAMP was back-corrected for recovery using the separated and non-separated [^14C] values and expressed as a fraction of the total [^3H] cAMP to give the amount of the substrate hydrolyzed. […]

recombinant PDE7A1 = molecular target: T4, recombinant PDE7A1 (Homo sapiens, UniProt Q13946); test: cAMP hydrolysis in cytosol extract of transfected CHO cells, with or without rolipram; format: biochemical; details: rolipram 10 μM
T4 construct: the full length PDE7A1 protein (1-483); made in house; host or cells: CHO (EcRCHO) cells, transient transfection, cytosol/lysate supernatant; Sf21/baculovirus also described
T4 sequence (Q13946 whole entry): as the sequence (Q13946 whole entry, species assumed) above
Source text: (§6) The reaction mixtures were then applied to these columns.

[2] = molecular target: PDE7 mutant corresponding to the amino acids sequence 101-483 of the full length human PDE7A1 (human) (UniProt Q13946); test: cell-based or functional assay
[3] = PDE catalytic activity of full length and truncated PDE7A1 expressed in CHO cells; format: biochemical; details: for level of PDE activity after expression in CHO cells (in words): cell cytosol, compared with full length PDE7A1 or PDE7Δ100; for increase in PDE catalytic activity compared to full length PDE7A1/PDE7A2 / phosphodiesterase catalytic activity relative to full length enzyme: expressed in CHO cells
Procedure: as §6
The resultant PDE activity was measured and compared to that for the full length coding region of PDE7A1 and non-transfected cells. […] The first 100 amino acids seem to have an influence on the catalytic activity of the expressed PDE7 enzyme.

[4] = PDE assay for Km measurements; format: biochemical; details: Km for cAMP
Procedure: The cell lysates containing PDE7A1 (full length or the truncated forms) were used as enzyme source. […] Substrate concentrations spanned a 15 nM-750 nM range. Plates were incubated for 10 min at 37° C. in a heater/shaker and stopped by addition of 20 μL Yttrium silicate beads (Scintillation Proximity Assay, Amersham). Enzyme activity was read on a Topcount reader (Packard). Substrate depletion never exceeded 15% of the initial amount. Saturation curves were then fitted with a classical sigmoidal model, Hill slope fixed to 1.
By performing kinetics studies and Km measurements as described above, the respective Km values of the full length PDE7A1 and the truncated 101-450 PDE7A1 recombinant proteins expressed in CHO cells have been determined and are shown in Table 1 below.
The Km for cAMP of the PDE7(101-450), PDE7(101-483), have been measured and compared to those of endogenously expressed PDE7 in human lymphocyte cell line (Molt4) and the full length wild type recombinant PDE7A1 (Table 1).

[5] = molecular target: T5, catalytic fragment (101-482) (Homo sapiens, UniProt Q13946); test: Co-expression of the first 100 N-terminal amino acids with the catalytic fragment in CHO cells, PDE activity; format: cell-based
T5 construct: this catalytic fragment (101-482) fragment was co-expressed; 6xHis (N); expressed in transfected cells; host or cells: CHO cells co-transfected (lipofectamine) with two plasmids; PDE activity measured
Procedure: This part of the protein has been proposed to act as an auto-inhibitory domain. To establish if overexpression of the first 100 amino acids can inhibit PDE7 activity of the catalytic site, this catalytic fragment (101-482) fragment was co-expressed with the fragment 1-101 of a separate plasmid or with the plasmid pcDNA3 without this insert (negative control). Cells were transfected with 15 μg of each plasmid DNA. The catalytic site activity was inhibited of only around 40-50% in presence of fragment 1-101. (FIG. 12) The effect dose response has been checked to evaluate the involvement of the first 100 amino in PDE7 activity of the catalytic domain.
A dose effect curve has been done in the same coexpression conditions. 15 μg of the catalytic fragment (101-482) was coexpressed with increasing quantity of the fragment 1-101 of a separate plasmid. The DNA quantity was normalized for each transfection using an empty vector. (FIG. 13) A effect dose response of 100 N-terminal amino acids on PDE7 activity was observed (n=3). The catalytic domain activity was inhibited until 60% in presence of the fragment 1-100 at the highest concentration.

Molecule | sensitivity of PDE7A to standard selective inhibitors of other PDE families (PDE7A) | sensitivity of enzyme to inhibitor [1] | sensitivity of enzyme to inhibitor (PDE7(101-450)) | level of PDE activity after expression in CHO cells (in words) [3] | also measured
CN/C(=N\c1ccc(C2=NNC(=O)CC2C)cc1)NC#N (stereo not drawn) [SKF-94836] | insensitivity | insensitive | insensitive | – | –
CCOC(=O)C1=C[C@]2(CC)CCCN3CCc4c(n1c1ccccc41)[C@@H]32 [Vinpocetin] | insensitivity | insensitive | insensitive | – | –
CCCOc1ccccc1-c1nc2nn[nH]c2c(=O)[nH]1 [Zaprinast] | insensitivity | insensitive | insensitive | – | –
Cc1[nH]c(=O)c(C#N)cc1-c1ccncc1 [milrinone] | insensitivity | – | – | – | –
COc1ccc(C2CNC(=O)C2)cc1OC1CCCC1 (stereo not drawn) [rolipram] | – | insensitive | insensitive | – | sensitivity of PDE activity to rolipram (PDE7(101-483)): insensitive; sensitivity of increase in cAMP activity above basal to rolipram (recombinant PDE7A1): insensitive
first N-terminal 100 amino acids of the full length human PDE7A1 (from UniProt Q13946 1-100) | – | – | – | – | PDE7 catalytic domain activity in CHO cells, 15 µg catalytic fragment plasmid with increasing quantity of fragment 1-101 plasmid, percent inhibition at the highest concentration [2]: 60%; PDE7 catalytic site activity in lysates of co-transfected CHO cells (15 µg of each plasmid), percent inhibition [2]: 40 to 50%
B1 | – | – | – | equivalent to that observed for PDE7Δ100 | increase in PDE catalytic activity compared to full length PDE7A1/PDE7A2 [3]: about 15 fold; phosphodiesterase catalytic activity relative to full length enzyme [3]: about 15 times; Km [4]: 0.07 µM; Km ([4]; Table 1): 0.074 µM
B2 | – | – | – | no detectable increase | –
B3 | – | – | – | no detectable increase | –
B4 | – | – | – | – | inhibition of catalytic site activity ([5]; co-expression, 15 μg of each plasmid DNA): 40-50%; inhibition of catalytic domain activity ([5]; dose effect curve, fragment at the highest concentration, n=3): ≤ 60%
B5 | – | – | – | Highest levels of PDE activity | increase in PDE catalytic activity compared to mock transfected cells ([3]; CHO cells): 8 fold; increase in PDE catalytic activity compared to full length PDE7A1/PDE7A2 [3]: 15 fold; phosphodiesterase catalytic activity relative to full length enzyme [3]: about 15 times; Km ([4]; Table 1): 0.052 µM
